How the values were obtained:
[1] = Transglycosylase activity against laminaribiose (HPLC, TLC, FIG. 8); format: biochemical; conditions: 0.002 U of Bgl1B, 0.3% (w/v) of laminarin (so in the source)
Experimental: (§1) Characteristics of the enzymatic reaction of the Bgl1B protein using, as a substrate, laminarin, which is a polysaccharide, were analyzed using high performance liquid chromatography (HPLC) and thin layer chromatography (TLC). HPLC analysis was performed using Agilent 1100 HPLC equipped with a gel permeation and ligand exchange column (KS-802; Shodex) and a refractive index detector, and analysis conditions were a flow rate of 0.5 mL/min, a column temperature of 80° C., and sterile water as a mobile phase. For TLC analysis, 1 μl of a reaction product was loaded onto silica gel 60 plates (Merck), and then developed using a mixed solvent of n-butanol:acetic acid:water (volume ratio of 3:2:2), and treated with 10% (v/v) of sulfuric acid for visualization.

[2] = Thermal stability of Bgl1B; format: physicochemical
Source text: FIG. 4 illustrates the stability with respect to temperature of the enzyme.

[3] = Substrate specificity of Bgl1B on disaccharides (TLC); format: biochemical; conditions: 0.2% (w/v) substrate, 20 mM sodium phosphate buffer (pH 6), 0.6 U of Bgl1B, 1 hour
Experimental: To confirm the substrate specificity of the Bgl1B protein, each of 0.2% (w/v) of a plurality of disaccharides in a 20 mM sodium phosphate buffer (pH 6) was allowed to react with 0.6 U of Bgl1B for 1 hour.

[4] = Optimum pH of Bgl1B protein (relative activity at pH 4.0-9.0); format: biochemical
Source text: FIG. 2 illustrates the relative activity of Bgl1B at a pH ranging from 4.0 to 9.0. […] The activity was reduced to 30% or less at a pH of 4 and at a pH of 8 or higher.

[5] = Enzymatic reaction rate (Lineweaver-Burk), laminaribiose; format: biochemical
Experimental: To confirm the enzymatic reaction rate of the Bgl1B protein for various substrates, the Bgl1B protein was allowed to react with each substrate at various concentrations of 0.1-0.4% (w/v) at pH 6 and 40° C. Vmax, Km, and kcat, which are parameters related to an enzymatic reaction rate, were determined from the Lineweaver-Burk plot.

[6] = Transglycosylase activity against laminarin (HPLC, TLC); format: biochemical; conditions: 0.03 U of Bgl1B, 0.2% (w/v) of laminarin, after 24 hours
Experimental: as §1

[7] = Hydrolysis of laminarin to glucose (HPLC); format: biochemical; conditions: 3 U of Bgl1B, 0.2% (w/v) of laminarin, 40° C., 24 hours
Experimental: as §1

[8] = Optimum temperature of Bgl1B (relative activity at 2° C. to 60° C.); format: biochemical
Experimental: FIG. 3 illustrates the relative activity of Bgl1B at a temperature ranging from 2° C. to 60° C. […] An enzymatic activity of approximately 83% was maintained at 20° C. […] In addition, the enzyme can be inactivated with only simple heat treatment.

B1: Bgl1B: β-glucosidase having the amino acid sequences of SEQ ID NO: 1, from Saccharophagus degradans 2-40^T, with exo-type glucanase and transglycosylase activities (protein)
chain: MNRLTLPPSSRLRSKEFTFGVATSSYQIEGGIDSRLPCNWDTFCEQPNTIIDNTNGAIACDHINRWQDDIELIANLGVDAYRFSIAWGRVINLDGSLNNEGVTFYKNILTKLREKNLKAYITLYHWDLPQHLEDAGGWLNRDTAYKFRDYVNLITQALDDDVFCYTTLNEPFCSAYLGYEIGVHAPGIKDLASGRKAAHHLLLAHGLAMQVLRKNCPNSLSGIVLNMSPCYAGSNAQADIDAAKRADDLLFQWYAQPLLTGCYPDAINSLPDNAKPPICEGDMALISQPLDYLGLNYYTRAVFFADGNGGFTEQVPEGVELTDMGWEVYPQGLTDLLIDLNQRYTLPPLLITENGAAMVDELVNGEVNDIARINYFQTHLQAVHNAIEQGVDVRGYFAWSLMDNFEWALGYSKRFGITYVDYQTQKRTLKASGHAFAEFVSSRS
modifications: Saccharophagus degradans 2-40T
product of transglycosylase activity (FIGS. 8A and 8B) [1]: production of DP3 was confirmed | enzymatic activity maintained after heat ([2]; after reaction at 40° C. for 1 hour): 80% | enzymatic activity after heat ([2]; after reaction at 50° C. or higher for 1 hour): almost no activity | hydrolysis of agarotriose [3]: unable to hydrolyze agarotriose | hydrolysis of disaccharides with an α-linkage [3]: unable to hydrolyze any disaccharide with an α-linkage | hydrolysis of disaccharides with β-linkages [3]: able to hydrolyze all disaccharides with β-linkages | pH of highest activity ([4]; 0.1% (w/v) cellobiose, 40° C., 15 minutes, pH 4.0-9.0): 6 | enzymatic activity at about pH 5 to about pH 7.5 ([4]; about pH 5 to about pH 7.5): ≥ 80% | relative activity at a pH of 4 ([4]; pH 4, 0.1% (w/v) cellobiose, 40° C., 15 minutes): ≤ 30% | relative activity at a pH of 8 or higher ([4]; pH 8 or higher, 0.1% (w/v) cellobiose, 40° C., 15 minutes): ≤ 30% | substrate specificity in a collective view of the parameters ([5]; Table 2 substrates compared): highest substrate specificity for laminaribiose | lower Km compared to Novozyme 188 ([5]; laminaribiose, compared to the commercialized enzyme Novozyme 188): 2.5 fold | products at very low enzyme concentration (transglycosylase activity) [6]: oligosaccharides with low degrees of polymerization such as DP2, DP3, and DP4 were produced | production yield of glucose from laminarin [7]: 75% | products of laminarin degradation (HPLC) [7]: only glucose is produced without the production of oligosaccharides | enzymatic activity at 50° C. or higher ([8]; 50° C. or higher): sharply reduced | enzymatic activity at 2-10° C. ([8]; pH 6, 2-10° C.): ≥ 58% | enzymatic activity at pH 6 and 10° C. to 40° C. ([8]; pH 6, 10° C. to 40° C.): ≥ 80% | enzymatic activity maintained at 20° C. ([8]; pH 6, 20° C.): approximately 83% | temperature of highest enzymatic activity ([8]; pH 6, range 2° C. to 60° C.): 40 °C
